Measurements as given in the supplement of paper PMC7125110.
± gives the standard error. For part of these data: Variants at the floor of the assay were thinned out.

B1: glmS ribozyme (parent)
chain: AUAAAAGCGCCAGAACUACAGAAAUGUAGUUGACGAGGAGGAGGUUUAUCGAAUUUUCGGCGGAUGCCUCCAAA

Columns and labels:
Settings in all cases: with glucosamine-6-phosphate
[1] = variants of: B1; experiment: self-cleavage kobs at 40 uM GlcN6P; higher = faster cleavage; RNA array
In short: (§1)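 Barcoded ribozyme variants, transcribed in situ by E. coli RNA polymerase on sequenced MiSeq chips, were followed via a hybridised Cy3 probe at 37 °C. Glucosamine-6-phosphate ranged from 40 μM to 10 mM in HEPES/KCl/Mg(OAc)2 buffer. kobs came from decay fits to per-tile medians, and kcat and KM from weighted Michaelis–Menten fits.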

[2] = variants of: B1; experiment: self-cleavage kobs at 640 uM GlcN6P; higher = faster cleavage; RNA array
In short: as §1

[3] = variants of: B1; experiment: self-cleavage kobs at 2500 uM GlcN6P; higher = faster cleavage; RNA array
In short: as §1

[4] = variants of: B1; experiment: self-cleavage kobs at 10000 uM GlcN6P; higher = faster cleavage; RNA array
In short: as §1

[5] = variants of: B1; experiment: kcat; higher = faster cleavage; RNA array
In short: as §1

[6] = variants of: B1; experiment: KM; higher = weaker cofactor use; RNA array
In short: as §1

[7] = variants of: B1; experiment: self-cleavage kobs at 160 uM GlcN6P; higher = faster cleavage; RNA array
In short: as §1

Variant: C58U G60U
- self-cleavage kobs at 40 uM GlcN6P [1]: < 1e-05 s⁻¹
- self-cleavage kobs at 640 uM GlcN6P [2]: < 1e-05 s⁻¹
- self-cleavage kobs at 2500 uM GlcN6P [3]: < 1e-05 s⁻¹
- self-cleavage kobs at 10000 uM GlcN6P [4]: < 1e-05 s⁻¹

Variant: G29U G37A
- kcat [5]: 0.000503 ± 4.3e-05 s⁻¹
- KM [6]: 3470 ± 490 µM
- self-cleavage kobs at 640 uM GlcN6P [2]: 8.23e-05 ± 1.1e-05 s⁻¹
- self-cleavage kobs at 2500 uM GlcN6P [3]: 0.000188 ± 3.4e-05 s⁻¹
- self-cleavage kobs at 10000 uM GlcN6P [4]: 0.000383 ± 4.6e-05 s⁻¹

Variant: A14U G40C
- kcat [5]: 0.000633 ± 5.1e-05 s⁻¹
- KM [6]: 1980 ± 320 µM
- self-cleavage kobs at 40 uM GlcN6P [1]: 2.05e-05 ± 9e-06 s⁻¹
- self-cleavage kobs at 160 uM GlcN6P [7]: 5.2e-05 ± 9.2e-06 s⁻¹
- self-cleavage kobs at 640 uM GlcN6P [2]: 0.000142 ± 1.5e-05 s⁻¹
- self-cleavage kobs at 2500 uM GlcN6P [3]: 0.000391 ± 4.2e-05 s⁻¹
- self-cleavage kobs at 10000 uM GlcN6P [4]: 0.000522 ± 3.7e-05 s⁻¹

Variant: A6C G41C G43A A48G
- self-cleavage kobs at 40 uM GlcN6P [1]: < 1e-05 s⁻¹

Variant: A14U G32C C50A C68G
- self-cleavage kobs at 40 uM GlcN6P [1]: 8.36e-05 ± 3e-05 s⁻¹
- self-cleavage kobs at 640 uM GlcN6P [2]: 0.000278 ± 7.7e-05 s⁻¹
- self-cleavage kobs at 2500 uM GlcN6P [3]: 0.000126 ± 6e-05 s⁻¹
- self-cleavage kobs at 10000 uM GlcN6P [4]: 7.34e-05 ± 2.2e-05 s⁻¹

Variant: G59A G60C
- KM [6]: 30.9 ± 14 µM

Variant: A42G U47A
- self-cleavage kobs at 40 uM GlcN6P [1]: 0.000848 ± 0.00018 s⁻¹
- self-cleavage kobs at 160 uM GlcN6P [7]: 0.00279 ± 0.0011 s⁻¹
- self-cleavage kobs at 640 uM GlcN6P [2]: 0.00967 ± 0.0013 s⁻¹
- self-cleavage kobs at 2500 uM GlcN6P [3]: 0.0269 ± 0.0085 s⁻¹
- self-cleavage kobs at 10000 uM GlcN6P [4]: 0.00752 ± 0.0028 s⁻¹

Variant: G9A G35A
- self-cleavage kobs at 40 uM GlcN6P [1]: < 1e-05 s⁻¹
- self-cleavage kobs at 160 uM GlcN6P [7]: < 1e-05 s⁻¹
- self-cleavage kobs at 640 uM GlcN6P [2]: < 1e-05 s⁻¹

Variant: G32U U46G C61U
- self-cleavage kobs at 40 uM GlcN6P [1]: < 1e-05 s⁻¹
- self-cleavage kobs at 2500 uM GlcN6P [3]: < 1e-05 s⁻¹
- self-cleavage kobs at 10000 uM GlcN6P [4]: < 1e-05 s⁻¹

Variant: C11G G37C G40U G51A U65C
- self-cleavage kobs at 40 uM GlcN6P [1]: < 1e-05 s⁻¹
- self-cleavage kobs at 10000 uM GlcN6P [4]: < 1e-05 s⁻¹

Variant: G7A G32U U47G C50U G63A C67G
- self-cleavage kobs at 40 uM GlcN6P [1]: 0.000556 ± 0.00014 s⁻¹
- self-cleavage kobs at 10000 uM GlcN6P [4]: 0.000988 ± 0.00041 s⁻¹

Variant: C34U G59C
- self-cleavage kobs at 40 uM GlcN6P [1]: < 1e-05 s⁻¹
- self-cleavage kobs at 160 uM GlcN6P [7]: < 1e-05 s⁻¹
- self-cleavage kobs at 640 uM GlcN6P [2]: < 1e-05 s⁻¹
- self-cleavage kobs at 2500 uM GlcN6P [3]: < 1e-05 s⁻¹
- self-cleavage kobs at 10000 uM GlcN6P [4]: < 1e-05 s⁻¹

Variant: C8G U45G U47G C58U G66U C71U
- self-cleavage kobs at 40 uM GlcN6P [1]: < 1e-05 s⁻¹

Variant: C8A A53G G63A
- self-cleavage kobs at 40 uM GlcN6P [1]: < 1e-05 s⁻¹
- self-cleavage kobs at 640 uM GlcN6P [2]: < 1e-05 s⁻¹

Variant: G44U C70A
- self-cleavage kobs at 40 uM GlcN6P [1]: < 1e-05 s⁻¹
- self-cleavage kobs at 160 uM GlcN6P [7]: < 1e-05 s⁻¹
- self-cleavage kobs at 640 uM GlcN6P [2]: < 1e-05 s⁻¹
- self-cleavage kobs at 2500 uM GlcN6P [3]: < 1e-05 s⁻¹
- self-cleavage kobs at 10000 uM GlcN6P [4]: < 1e-05 s⁻¹

Variant: A14G A39U U56C
- self-cleavage kobs at 40 uM GlcN6P [1]: 0.000144 ± 2.6e-05 s⁻¹
- self-cleavage kobs at 10000 uM GlcN6P [4]: 0.00921 ± 0.0012 s⁻¹

Variant: C8G C11G
- self-cleavage kobs at 40 uM GlcN6P [1]: < 1e-05 s⁻¹
- self-cleavage kobs at 160 uM GlcN6P [7]: < 1e-05 s⁻¹
- self-cleavage kobs at 10000 uM GlcN6P [4]: < 1e-05 s⁻¹

Variant: C10G C16G G35C A39C
- self-cleavage kobs at 40 uM GlcN6P [1]: < 1e-05 s⁻¹
- self-cleavage kobs at 10000 uM GlcN6P [4]: < 1e-05 s⁻¹

Variant: A15C C50G A53G G62A C70G
- self-cleavage kobs at 40 uM GlcN6P [1]: 0.000105 ± 3e-05 s⁻¹
- self-cleavage kobs at 640 uM GlcN6P [2]: 8.17e-05 ± 2.4e-05 s⁻¹
- self-cleavage kobs at 2500 uM GlcN6P [3]: 0.000125 ± 4.1e-05 s⁻¹
- self-cleavage kobs at 10000 uM GlcN6P [4]: 8.78e-05 ± 1.9e-05 s⁻¹

Variant: C16U U56A
- self-cleavage kobs at 40 uM GlcN6P [1]: 0.000484 ± 9.4e-05 s⁻¹
- self-cleavage kobs at 160 uM GlcN6P [7]: 0.000861 ± 0.00013 s⁻¹
- self-cleavage kobs at 640 uM GlcN6P [2]: 0.00448 ± 0.0011 s⁻¹
- self-cleavage kobs at 2500 uM GlcN6P [3]: 0.00493 ± 0.0012 s⁻¹
- self-cleavage kobs at 10000 uM GlcN6P [4]: 0.0273 ± 0.0079 s⁻¹
